Where a chain is given by its changes, count along the chain named. Each block holds one binder with its values, some of them ahead of it.
Key:
[1] = target: T1, recombinant human GM-CSF (rhGM-CSF), produced in E. coli (human, UniProt P04141 18-144); experiment: SPR off-rate ranking, purified periplasmic preparation over immobilized rhGM-CSF; clone listed among the sequenced hits in the 2nd table
T1 construct: The ELISA of 2.5.2 and the TF-1 proliferation assays say only rhGM-CSF without naming the preparation; they are assigned to this molecule; also called human GM-CSF antigen; recombinant human granulocyte macrophage colony stimulating factor
Experimental: FIG. 9: Binding analysis (kinetic off rate) of SCA hits derived from the method of the invention, as determined by SPR. Binding kinetics of the SCA hits were measured injecting 10 µL of purified periplasmic preparation ("PPP") protein solution with a flow rate of 5 µL/min at 25° C. onto the sensor chip. The data were monitored in all four flow cells. Background association with the unmodified CM5 chip surface (FC1) was substracted from the binding to the immobilised rhGM-CSF (FC2) allowing analysis of the specific binding signal (FC2-FC1 response difference). The dissociation rate was monitored for 100 sec (FIG. 4). The amplitude of the binding peak (RUmax) directly correlates to the protein concentration in the injected sample. The kinetic association rate constant (ka) is concentration dependent and can—due to varying concentrations of the PPP protein solution—not be used for the qualitative ranking of the purified PPP SCA material. The kinetic dissociation rate constant (kd) is protein concentration independent and characteristic for the binding strength of the respective SCA hit. The SCA hits with the best apparent off rate were identified.

[2] = target: T1, recombinant human GM-CSF (rhGM-CSF), …; experiment: cell-based or functional assay

T1 sequence (P04141 18-144 limits assumed): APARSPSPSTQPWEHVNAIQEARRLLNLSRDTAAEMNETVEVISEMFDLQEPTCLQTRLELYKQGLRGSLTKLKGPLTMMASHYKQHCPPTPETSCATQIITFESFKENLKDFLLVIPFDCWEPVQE

B1: half-human SCA B33oN-22 (scFv)
scFv: ELQLVEQSGAALVKPGDSVKMSCKASGYPFTDYIVHWVKQSHGKSLDWIGYINPYSGDTKFNEKFKSKATLTVDKSSSTAYMEFSRLTSEDSAIYYCARSGLIAVYFDYWGQGTTVTVSSGGGGSGGGGSGGGGSELVLTQSPDFQSVTPKEKVTITCRASQSIGSSLHWYQQKPDQSPKLLIKFASQSFSGVPSRFSGSGSGTDFTLTINSLEAEDAATYYCQQSYSTPPTFGQGTKVEIKTGDYKDDDDKHHHHHH
notes: Expressed from pComb3H5BFlag/His
binding result [1]: binds

B2: half-human SCA B32oN-67 (scFv)
scFv: B1 scFv with D144G, F190I, S198T, N211S, E214Q, A215P, A218I, P231W, V239L
notes: as for B1
binding result [1]: binds

B3: half-human SCA C32oN-34 (scFv)
scFv: B1 scFv with K153R, S163T, S166N, S167N, D176G, P231W
notes: as for B1
binding result [1]: binds

B5: half-human SCA B33oN-21 (scFv)
scFv: B1 scFv with F190L, P231W, V239L
notes: as for B1
binding result [1]: binds

B9: half-human SCA C33oN-32 (scFv)
scFv: B1 scFv with D144E, T149A, S198G, D205N, Y227S, S228T, T229L, V239L
IC50 (read off the curve), TF-1 proliferation, C33ON-32 dimer [2]: ~0.1 µg/mL
IC50 (read off the curve), TF-1 proliferation, C33ON-32 mono [2]: ~0.2 µg/mL

B10: half-human SCA B32oN-44 (scFv)
scFv: B1 scFv with S178P, F190I, G192R, S200T, Y227F, T229F, P231Y, V239L
notes: as for B1
binding result [1]: binds

B12: half-human SCA C32oN-46 (scFv)
scFv: B1 scFv with F190L, N211S, E214Q, A215P, A218F
notes: as for B1
binding result [1]: binds

B13: half-human SCA B33oN-69 (scFv)
scFv: B1 scFv with S166T, S167G, S212G, Y227S, S228T, T229L, V239L
notes: as for B1
binding result [1]: binds

B15: half-human SCA B32oN-73 (scFv)
scFv: B1 scFv with D144G, F190I, S200T, N211S, E214Q, A215P, A218I, P231W, V239L
notes: as for B1
binding result [1]: binds

B16: half-human SCA C32oN-10 (scFv)
scFv: B1 scFv with F190L, A218F, P231S, Q235P
notes: as for B1
binding result [1]: binds

B18: half-human SCA C33oN-49 (scFv)
scFv: B1 scFv with P231W, V239L
notes: as for B1
binding result [1]: binds

B19: half-human SCA C32oN-89 (scFv)
scFv: ELQLVEQSGAALVKPGDSVKMSCKASGYPFTDYIVHWVKQSHGKSLDWIGYINPYSGDTKFNEKFKSKATLTVDKSSSTAYMEFSRLTSEDSAIYYCARSGLIAVYFDYWGQGTTVTVSSGGGGSGGGGSGGGGSELVLTQSPSSLSASVGDRVTITCRASQSISRYLNWYQQKPGKPPKLLIFVASNLQTGVPSRFSGSGSGTDFTLTISSLEPEDFAVYYCQQRSNWPLTFGGGTKVDIKTGDYKDDDDKHHHHHH
notes: as for B1
binding result [1]: binds

B20: half-human SCA B32oN-33 (scFv)
scFv: ELQLVEQSGAALVKPGDSVKMSCKASGYPFTDYIVHWVKQSHGKSLDWIGYINPYSGDTKFNEKFKSKATLTVDKSSSTAYMEFSRLTSEDSAIYYCARSGLIAVYFDYWGQGTTVTVSSGGGGSGGGGSGGGGSELVMTQSPATLSLSPGERATLSCRASQSVRTYLAWYQQKPGQAPRLLIYAASHRATGIPARFSGSGSGTDFTLTISRLEPEDFAVYYCQQYGSSPPTFGQGTKVEIKTGDYKDDDDKHHHHHH
notes: as for B1
binding result [1]: binds

B22: half-human SCA B32oN-10 (scFv)
scFv: ELQLVEQSGAALVKPGDSVKMSCKASGYPFTDYIVHWVKQSHGKSLDWIGYINPYSGDTKFNEKFKSKATLTVDKSSSTAYMEFSRLTSEDSAIYYCARSGLIAVYFDYWGQGTTVTVSSGGGGSGGGGSGGGGSELQMTQSPSSLSASVGDRVTITCRTSQTISSLLNWYQQKPGKAPKLLIYAASNLQSGVPSRFSGSGSGTDFTLTISGLQPEDFSTYFCQQSYSFPRTFGQGTKVDIKTGDYKDDDDKHHHHHH
notes: as for B1
binding result [1]: binds

The next lines start with the values.

binding result [1]: binds
B4: half-human SCA C32oN-21 (scFv)
scFv: B1 scFv with D144G, F190I, S200T, Y227S, S228T, T229L, V239L
notes: as for B1

binding result [1]: binds
B6: half-human SCA C32oN-92 (scFv)
scFv: B1 scFv with F190L, T207A, Y227S, S228T, T229L, V239L
notes: as for B1

binding result [1]: binds
B7: half-human SCA B33oN-8 (scFv)
scFv: ELQLVEQSGAALVKPGDSVKMSCKASGYPFTDYIVHWVKQSHGKSLDWIGYINPYSGDTKFNEKFKSKATLTVDKSSSTAYMEFSRLTSEDSAIYYCARSGLIAVYFDYWGQGTTVTVSSGGGGSGGGGSGGGGSELVLTQSPGFQSVTPKEKVTITCRASQSIGSSLNWYQQKPDQPPKLLIKFASQSISGVSSRFSGTGSGTDFTLTISSLQPEDVATYYCQQSYSTPPTFGQGTKLEIKTGDYKDDDDKHHHHHH
notes: as for B1

binding result [1]: binds
B8: half-human SCA B33oN-66 (scFv)
scFv: B1 scFv with S167N, T207S, K238R, V239L
notes: as for B1

binding result [1]: binds
B11: half-human SCA B32oN-48 (scFv)
scFv: B1 scFv with D144G, S178P, F190I, D205N, Y227S, S228T, T229L
notes: as for B1

binding result [1]: binds
B14: half-human SCA B33oN-115 (scFv)
scFv: B1 scFv with F190L, N211S, E214Q, A215P, A218F, P231S, Q235P
notes: as for B1

binding result [1]: binds
B17: half-human SCA B32oN-49 (scFv)
scFv: B1 scFv with F190L, N211S, E214Q, A215P, A218F, S228T, Q235G
notes: as for B1

binding result [1]: binds
B21: half-human SCA B33oN-35 (scFv)
scFv: ELQLVEQSGAALVKPGDSVKMSCKASGYPFTDYIVHWVKQSHGKSLDWIGYINPYSGDTKFNEKFKSKATLTVDKSSSTAYMEFSRLTSEDSAIYYCARSGLIAVYFDYWGQGTTVTVSSGGGGSGGGGSGGGGSELQMTQSPSSLSASVGDRVTITCRASQSIGSSLHWYQQKPDQSPKLLIKFASQSFSGVPSRFGGSGSGTNFTLTINSLEAEDAATYYCQQSSTLPPTFGQGTKLEIKTGDYKDDDDKHHHHHH
notes: as for B1

From patent US8247194 (Amgen, dated 2012)
